Test results reported in patent publication US6432692B1, “Sensitive bioassay for detecting agonists of the aryl hydrocarbon receptor” (Wisconsin Alumni Research Foundation, priority 1999, dated 2002).

System: AHR
Test: Coimmunoprecipitation of 35S-labeled AHR with T7-tagged ARA9 or FKBP52
Assay type: binding
Conditions: T7-agarose coimmunoprecipitation, reticulocyte lysate AHR
Method: Bacterial Expression: The ARA9 and FKBP52 proteins tagged with the T7 peptide (PL799, PL1004, PL1005 and PL947) were expressed in BL21(DE3) bacteria (Novagen). The T7 tag is an 11 amino acid peptide, MASMTGGQQMG, that facilitates detection and purification of the recombinant protein using anti-T7 antibodies (Novagen). Saturated cultures were used to inoculate LB growth media supplemented with 0.4 mM IPTG and 100 μg/ml ampicillin. The bacteria were allowed to grow an additional 4 hours at 37° C and pelleted by centrifugation at 5000×g for 5 min. The pellet was resuspended in bind/wash buffer (4.29 mM Na2HPO4, 1.47 mM KH2PO4, 2.7 mM KCl, 0.137 M NaCl, 0.1% (v/v) Tween and 0.002% (w/v) NaN3). The resulting mixture was disrupted using four ×15 second sonic pulses on ice. Insoluble debris was removed by centrifugation at 12,000×g for 20 minutes at 4° C. The supernatant was passed through a […] filter and protein concentrations determined by the BCA protein assay (Pierce, Rockford Ill.). […] The complexes were then precipitated and analyzed by SDS-PAGE and autoradiography.
Specificity of ARA9 for AHR: The structural similarity between ARA9 and FKBP52 led us to compare the relative capacity of these two factors to bind AHR. […] The AHR-ARA9 or AHR-FKBP52 associations were determined by coimmunoprecipitation with T7-agarose.

B1: ARA9: 37 kDa Ah receptor-associated protein, immunophilin structurally similar to FKBP52 (protein, UniProt O08915 1-330, looked up)
AH receptor-interacting …: MADLIARLREDGIQKRVIQEGRGELPDFQDGTKATFHFRTLHSDNEGSVIDDSRTRGKPMELIVGKKFKLPVWETIVCTMREGEIAQFLCDIKHVVLYPLVAKSLRNIAEGKDPLEGQRHCCGIAQMHEHSSLGHADLDALQQNPQPLIFHIEMLKVESPGTYQQDPWAMTDEEKAKAVPVIHQEGNRLYREGQVKEAAAKYYDAIACLKNLQMKEQPGSPDWIQLDLQITPLLLNYCQCKLVAQEYYEVLDHCSSILNKYDDNVKAYFKRGKAHAAVWNAQEAQADFAKVLELDPALAPVVSRELRALETRIRQKDEEDKARFRGIFSH
  efficiency at precipitating AHR relative to FKBP52: approximately four times more efficient
